Among the data in a protein production outcome set (Wang et al. 2014) are protein production values, retold here.

A short description of the data set: label from the status in PepcDB records.
With “MKAADEPAYLTVGTDVSAKYRGAFCEAKIKTVKRLVKVKVLLKQDNTTQLVQDDQVKGPLRVGAIVETRTSDGSFQEAIISKLTDASWYTVVFDDGDERTLRRTSLCLKGERHFAESETLDQLPLTNPEHFGTPVIAKKTNRGRRSSLPVTEDEKEEESSEEEDEDKRRLNDELLGKVVSVVSATERTEWYPALVISPSCNDDITVKKDQCLVRSFIDSKFYSIARKDIKEVDILNLPESELSTKPGLQKASIFLKTRVVPDNWKMDISEILESSSSDDEDGPAEENDEEKEKEAKKTEEEVPEEELDPEERDNFLQQLYKFMEDRGTPINKPPVLGYKDLNLFKLFRLVYHQGGCDNIDSGAVWKQIYMDLGIPILNSAASYNVKTAYRKYLYGFEEYCRSANIQFRTVHHHEPKVKEEKKDLEESMEEALKLDQEMPLTEVKSEPEENIDSNSESEREEIELKSPRGRRRIARDVNSIKKEIEEEKTEDKLKDNDTENKDVDDDYETAEKKENELLLGRKNTPKQKEKKIKKQEDSDKDSDEEEEKSQEREETESKCDSEGEEDEEDMEPCLTGTKVKVKYGRGKTQKIYEASIKSTEIDDGEVLYLVHYYGWNVRYDEWVKADRIIWPLDKGGPKKKQKKKAKNKEDSEVDEKRDEERQKSKRGRPPLKSTLSSNMPYGLSKTANSEGKSDSCSSDSETEDALEKNLINEELSLKDELEKNENLNDDKLDEENPKISAHILKENDRTQMQPLETLKLEVGENEQIVQIFGNKMEKTEEVKKEAEKSPKGKGRRSKTKDLSLEIIKISSFGQNEAGSEPHIEAHSLELSSLDNKNFSSATEDEIDQCVKEKKLKRKILGQSSPEKKIRIENGMEMTNTVSQERTSDCIGSEGMKNLNFEQHFERENEGMPSLIAESNQCIQQLTSERFDSPAEETVNIPLKEDEDAMPLIGPETLVCHEVDLDDLDEKDKTSIEDVAVESSESNSLVSIPPALPPVVQHNFSVASPLTLSQDESRSVKSESDITIEVDSIAEESQEGLCERESANGFETNVASGTCSIIVQERESREKGQKRPSDGNSGLMAKKQKRTPKRTSAAAKNEKNGTGQSSDSEDLPVLDNSSKCTPVKHLNVSKPQKLARSPARISPHIKDGEKDKHREKHPNSSPRTYKWSFQLNELDNMNSTERISFLQEKLQEIRKYYMSLKSEVATIDRRRKRLKKKDREVSHAGASMSSASSDTGMSPSSSSPPQNVLAVECR”, the protein production entry was “not failed”.

With “MKAALLDQVARVGKALANGRRLQILDLLAQGERAVEAIATATGMNLTTASANLQALKSGGLVEARREGTRQYYRIAGEDVARLFALVQVVADEHLADVAVLEHHHHHH”, the protein production entry is “failed”.

Turning to “MKADDSRFFSFLKDRIGLDVTSVGEAIIERALRQRAKAANCADSDDYWHLLISSPQEQQALIEAVIVPETWFFRYPESFVTLGMLARERIASLAGVRPLRILSLPCSTGEEPYSIAMALFDAGVDARQFKVDAVDISPVSIAKAVHGIYGKNSFRGSDLSYRERFFSAITDGFEVADEIRACVNFQPGNLLDPKLASQVPYDIVFCRNLVIYFDRPTQQRVFQVLKQLTREDGLLFIGPAEGNLLAGIGMRSIGIAQSFAFRHAPAEAAAPAQVQAAAPIAPRPVVEAPARSPAPTPRPAARTSAAFAPLAKPAAAAGNSEVSALLDTIAGLANEGKSAEARAACERYLQQHEPVAQVFYWLGLLSEVEGAVVQAQGFYRKALYLQPQHRESLAQLAALLAAQGDSAGARRLQDRAARGANKQGNH”, the protein production entry is recorded as “failed”.

Take “MKAFTVHQAKTHLSRLLKAVEEGEEVVILRGKTPVARLVPYRKGKRPLGFVPGKLPESFFEPLPEEELALWEGATS”: the protein production result is “not failed”.

On to “MKAKGNQKTKVNIVTLGCSKNLVDSENLLTQLRGNGIEAEHESKNDNSNVVVINTCGFIDNAKQESIDTILRYIDAKENGLIDKIYVSGCLSQRYKDDMEREMPQVDAFFGSNELPAILKKFRADYKHELVGERLLTTPSHYAYVKIAEGCDRPCSFCAIPVMRGKHVSTPMEDLVKQAKGMAAKGTKELILIAQDLTYYGLDIYKKRNLSDLLKNLSDVEGIDWIRLQYAYPSGFPLDVLDVMAERSNICKYIDMPLQHGSSDMLKLMRRGIDRPKTEDLIKTIRDKVPGIAFRTTMIIGHPGETEKDFDELCSFVEEQRFDRLGAFTYSHEEHTHSYSMEDTIPQEEKEERQATIMSIQEGISAELNEKKIGNTYKVLFDRKEGGYFIGRTEHDSPEVDNEVMVSAKDQYVRIGDFANVKINDAAEFDLFGEIVK”, for which the protein production entry is given as “failed”.

Take “MKALASRGTRNHLAGEAAENSVLRDYERRGYHLVRRRWRGRCGEIDLIARSGDEVVFVEVKQSRDFARAAESLGARQMKRLHAAAAEFLAEEPDGQLTPMRFDVALVDGTGRLEIVENAFGHG”: the protein production result is “failed”.

For “MKALIFAAAGLLLLLPTFCQSGMENDTNNLAKPTLPIKTFRGAPPNSFEEFPFSALEGWTGATITVKIKCPEESASHLHVKNATMGYLTSSLSTKLIPAIYLLVFVVGVPANAVTLWMLFFRTRSICTTVFYTNLAIADFLFCVTLPFKIAYHLNGNNWVFGEVLCRATTVIFYGNMYCSILLLACISINRYLAIVHPFTYRGLPKHTYALVTCGLVWATVFLYMLPFFILKQEYYLVQPDITTCHDVHNTCESSSPFQLYYFISLAFFGFLIPFVLIIYCYAAIIRTLNAYDHRWLWYVKASLLILVIFTICFAPSNIILIIHHANYYYNNTDGLYFIYLIALCLGSLNSCLDPFLYFLMSKTRNHSTAYLTK”, the protein production entry is “failed”.

On to “MKALIFAAGFGERMRPLTEHTPKPLLSVGGTPLIVWHLRKLAALGVDEVVINTSWLAEQFPQVLGDGSAFGLRLTYSYEGATPLETGGGMLHALPLLGDAPFLLVNGDIWTDFDFARLSHAPDGLAQLVLVDQPSYATRADFALDADGNVRADLPASLTYSGIGMYRPALLRDWQSVIGQLPEQPCTAPRFALAPILRAQMTARLINGIHHSGRWTDVGTPQRLAELDAQLLRDGS”, for which the protein production entry was “failed”.

Turning to “MKALNDSYDVVVVGAGPAGSMASYNASKNGAKTLLIEKSQEIGTPVRCAEAVPRLEDFGINPDPSFVKSYIRGGYLIAPNGKKIVVKGGKTDGYVVERKVFDKFLAIRSGQAGTQIAVKSRVTKIEKTDDGYNVFVNYLGDEYIVKSKIVIAADGVESNIAEYAGLKSKKNPKEICSCAEYEMTNVKLLNNEMMEFYFGDICPKGYIWLFPKGDTVNVGIGVIDSKKRAIDYLDEFLTHPLVEGRLDNAVPVEFKVGGDPVGGPIKKTVADNIMVVGDAAGHVSPLTGGGIGLSMDCGLMAGDVAAQSIKAENYSEEFLDLYEKKWKEKYYKLLMNDLKYKNILQKLSDDELNAIANSIPENLEEVDVGKLAIKIVAKAPSLLRHFKELL”, the protein production entry is given as “failed”.

For the sequence “MKALTVNKTIFILVIAASLLLGAAVGYIAHSLTAGGGGVVVTGSKAVSTGTSIGVYLTIKNNTNTTSCIVGADIAESVSGKVVVDIHKTVEEGGRVVMMPAGPICLGPGETLEMRQGPGSYHVMIMGDRSAIEKITEDGVVEIKVLVEQQVDAPITGP”, the protein production result is listed as “failed”.

Take “MKARAILLASVLLVGCQASKHDGTVEQRAQSLSAAGQGEAGKFTSQARWLDDGTFYAQDQDLWTSIGDELKMGIPDNPRIREQKQKYLRNKSYLHDVTLRAEPYMYWIAGQVKKRNMPMELVLLPIVESAFDPHATSGANAAGIWQIIPSTGRNYGLKQTRSYDARRDVVASTTAALDMMQRLNKMFDGDWLLTVAAYNSGEGRVMKAVKANRSRGKPTDFWSLSLPHETKIYVPKMLALSDILKNSKRYGVKLPTADESRALARVRLDSPVDISQLADMAGMPVSKLKTFNAGVKGSTLGASGPKYVMVPQKHAAQLRESLASGDIAAVQPTQLADNTPLTSRSYKVRSGDTISGIASRLGVTTRDLQQWNNLRGSGLKVGQNLVIGAGSSAQRLANNSDSITYRVRKGDSLSSIAKRHGVNIRDVMRWNSDTDNLRPGDQLTLFVKNNDRPES”: the protein production entry was “failed”.

For “MKCIESLGKTVDEAVKKALSELKVTEDKVEIKVIDEGSKGLLNIIGKREAKVKVTLKTDYIDEVRTFLRKVFEDMNLVIEIKIKEIGNDLFVNLFGKNIGLLIGYRGETLDSLQYLVNLVANKNHADGKYKRVILDTENYRAKREETLKRLALKISKRVKEEKSPFKLEPMNPYERRVIHSALQNDKYVRTYSEGEEPHRRVVVELKKS”, the protein production entry is “not failed”.
